This data set in a line: protein stability index of a GFP-peptide fusion (GPS, HEK-293T) (PSI 1-6); higher = more stable.
[1] abbreviates: treatment: DMSO, c terminus: a fixed tail appended.
Setting [2] is: treatment: MLN4924 1 uM, 8 h, c terminus: a fixed tail appended.

± gives the standard deviation.
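Note: 24-mer peptide tiles fused after GFP, lentivirally expressed, FACS-sorted into six equal bins by GFP/DsRed ratio, decoded by Illumina sequencing, PSI is the read-weighted mean bin number.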

Consider RQKVLSLPLPDPLKYYLLYYREK [PCMTD2], for which the protein stability index came to 2.14 ± 0.18 (treatment: DMSO, c terminus: native) and 2.46 ± 0.19 (treatment: MLN4924 1 uM, 8 h, c terminus: native). For the sequence RRCKPKKPTRRDASPESPSKKGPI [GNAS], the protein stability index amounted to 5.15 ± 0.21 under setting [1] and 5.23 ± 0.22 under setting [2].

In the case of RRNSEFEIFVDCDINREQLNDIFH [TPH1], the protein stability index runs as follows: under setting [1], 2.55 ± 0.096; under setting [2], 2.73 ± 0.27.

RSDLYSSGRDRVGRQERGLPPSME [RBMX] gave a protein stability index under setting [1] of 4.41 ± 0.091 and a protein stability index under setting [2] of 4.51 ± 0.23.

As to RSHEGETAYIRVKVDGPRSPSYGR [SRSF1], the protein stability index under setting [1] worked out at 3.83 ± 0.19 and the protein stability index under setting [2] turned out to be 3.73 ± 0.32.

For the sequence RSIFGNAVSRELIEIGCEDKTLAF [MLH1], the protein stability index under setting [2] worked out at 2.97 ± 0.41.

Take RSLSACNKRVGMYLEGFDPFNQST [DLC1]: the protein stability index runs as follows: under setting [1], 2.85 ± 0.39; under setting [2], 2.81 ± 0.5. For RSLSPSLSSVDMRMTSSPSSIPRR [RAD54B] the same measures were 4.66 ± 0.15 and 4.69 ± 0.18.

Regarding RSSHLVIHERTHERERLYPFSECG [ZNF263], the protein stability index reads like this: under setting [1], 2.93 ± 0.21; under setting [2], 3.25 ± 0.3. For RSSVELELERCRQQAGLLVTGEKE [PPEF2] the same measures were 4.74 ± 0.57 and 4.86 ± 0.34. On the same counts, the results for RTAFLWRGNVVLRAQMIRNEYRKL [TRIM43] are 2.66 ± 0.29 and 2.51 ± 0.29. On the same counts, the results for RTILLSVISLLNEPNTFSPANVDA [CDC34] are 2.77 ± 0.41 and 2.66 ± 0.54. Consider RTVAVGDIVWGKIHGFPWWPARVL [PWWP2B], for which the protein stability index runs as follows: under setting [1], 2.02 ± 0.47; under setting [2], 2.17 ± 0.23. On the same counts, the results for RVEEQAILDAMAEETRQKQLLADE [TRIM35] are 5.57 ± 0.26 and 5.38 ± 0.15. As to RVTSLANLISPVRNGAVRRFGQTI [NET1], the protein stability index is, setting by setting: under setting [1], 2.55 ± 0.14; under setting [2], 2.63 ± 0.33. In the case of RVYFLKGGYETFYSEYPECCVDVK [DUSP5], the protein stability index runs as follows: under setting [1], 2.09 ± 0.23; under setting [2], 2.46 ± 0.55. For RWGYVAMKFAQVFGCFFYVYYIFE [SOAT1] the same measures were 3.17 ± 0.22 and 3.18 ± 0.39. For RYCQCNPDDSTSEDGIHTLTCALM [PSD2] the same measures were 3.96 ± 0.32 and 4.09 ± 0.18.

On to SAENGLEKSGFSQHQNKSPPKVKA [DLC1], for which the protein stability index came to 5.14 ± 0.44 under setting [1] and 5.1 ± 0.45 under setting [2]. SAGDADPENGEIKPASKPAGSSHT [ELOA2]: the protein stability index by setting is: under setting [1], 5.42 ± 0.42; under setting [2], 5.47 ± 0.44. SAVSTPSPVTRTRSLSACNKRVGM [DLC1]: the protein stability index is, setting by setting: under setting [1], 4.36 ± 0.19; under setting [2], 4.38 ± 0.16. As for SDAIRVVNAVLTQIDQIKRHSNVV [TRIP13], the protein stability index runs as follows: under setting [1], 2.33 ± 0.2; under setting [2], 2.35 ± 0.21. As to SDDDEEEEENIGCEEKAKKNANRP [ACBD3], the protein stability index under setting [1] is 5.42 ± 0.28 and the protein stability index under setting [2] was found to be 5.49 ± 0.38. On the same counts, the results for SDKEIVAEAERLDVKAMGPLVLTE [EIF5] are 5.08 ± 0.054 and 5.23 ± 0.31. With SDLKDDDAVPPGMESLISAPLVKT [CDC25B], the protein stability index was 5.21 ± 0.28 under setting [1] and 5.17 ± 0.43 under setting [2].

Regarding SELRRTMQALEIELQSQLSMKASL [KRT17], the protein stability index stood at 2.46 ± 0.21 under setting [1] and 2.23 ± 0.2 under setting [2].

For the sequence SFFFPPVNLPISFFRKLLDCCQVS [NLN], the protein stability index reads like this: under setting [1], 2.23 ± 0.77; under setting [2], 2.25 ± 0.5. For SFPLWYEEALKDEEERAQDRIATT [MAGEA10] the same measures were 4.71 ± 0.19 and 4.5 ± 0.27.

As to SGDFRSSTEDMERALSEYLAVFAR [P3H4], the protein stability index amounted to 3.44 ± 0.23 under setting [1] and 4.11 ± 0.17 under setting [2]. On the same counts, the results for SGEDPTAAAPVAEVPTAAGALTPT [CLPTM1] are 5.42 ± 0.16 and 5.47 ± 0.36. For SGFVGSGGWFCEGSFNGSEKETMQ [KRT36] the same measures were 3.87 ± 0.36 and 3.65 ± 0.19.

SGGHERSRDRRRSSDRSRDSSHER [BTBD10]: the protein stability index reads like this: under setting [1], 5.48 ± 0.18; under setting [2], 5.59 ± 0.19. For SGPARVIAIVSVMVILISIVIFCL [KCNA1] the same measures were 2.18 ± 0.14 and 2.22 ± 0.32. On the same counts, the results for SIGALISKAHLEKVRSYVKRALAE [ALDH8A1] are 2.42 ± 0.51 and 2.6 ± 1.1.

Take SILNAKAPALPPGGTDPHGYHQVP [FOXJ1]: the protein stability index runs as follows: under setting [1], 3.6 ± 0.2; under setting [2], 3.66 ± 0.14.

As for SIPRHFALSGKYSREFFNRRGELR [SRPK2], the protein stability index stood at 2.74 ± 0.46 under setting [1] and 2.8 ± 0.46 under setting [2]. For SISLMYGGSKRKSSFFSSPPYFED [SLA] the same measures were 2.37 ± 0.38 and 2.59 ± 0.2. As for SKRMGPMTVVRMDASVQPGPFRTL [RHOBTB1], the protein stability index came to 2.76 ± 0.14 under setting [1] and 2.91 ± 0.48 under setting [2]. On the same counts, the results for SLARLQQLLFVIFLLLYLFTLGTN [OR10K2] are 2.78 ± 0.51 and 2.13 ± 0.53. On the same counts, the results for SLEESVGKPLYLIFRNLCQMQEDN [INTS3] are 2.45 ± 0.45 and 2.46 ± 0.22. Consider SLEHVQLFDLMRRMLEFDPAQRIT [CLK3], for which the protein stability index is 2.31 ± 0.29 under setting [1] and 2.07 ± 0.36 under setting [2]. For SLGLDHCHSFISGTAPLNQETAEF [ACSBG2] the same measures were 4.18 ± 0.21 and 4.06 ± 0.16.

With SLISGCPNIQEAVEGAMHIQECVP [CRYL1], the protein stability index was determined as 3.87 ± 0.29 under setting [1] and 3.98 ± 0.18 under setting [2]. In turn, SLKFFLNKPMLADVVFEIQGTTVP [RHOBTB3] came in with a protein stability index under setting [1] of 2.68 ± 0.39 and a protein stability index under setting [2] of 2.29 ± 0.37. On the same counts, the results for SLLDVAEPGGPGWLPESDCETVTC [SMAD6] are 4.63 ± 0.27 and 4.74 ± 0.18. On the same counts, the results for SLSELLSQLDSGVSQAVEGPEELS [RIPK4] are 4.27 ± 0.29 and 4.1 ± 0.4. On the same counts, the results for SLSHINAYACLVCGKYFQGRGLKS [USP39] are 2.14 ± 0.39 and 2.07 ± 0.42.

Regarding SLSRNNSFRRNVGRVLLANSTQAD [FBXO34], the protein stability index by setting is: under setting [1], 3.15 ± 0.24; under setting [2], 3.21 ± 0.3. On the same counts, the results for SLVSLVLYNMDLSDDHIRVIVQLH [ZER1] are 2.63 ± 0.41 and 2.71 ± 0.54.

On to SMAKEVIAKELSKTYQETPEIDMF [ZBED1], for which the protein stability index by setting is: under setting [1], 4.11 ± 0.21; under setting [2], 4.05 ± 0.18. As for SMDNTPHTPTPFKNALEKYGPLKP [MYBL2], the protein stability index is 3.48 ± 0.092 under setting [1] and 3.7 ± 0.16 under setting [2]. For SMEKDATLNVDRKEKCVSLPDCCH [DLC1] the same measures were 4.81 ± 0.2 and 4.92 ± 0.17. For SMRKIVATWMLEVCEEQKCEEEVF [CCND1] the same measures were 2.3 ± 0.25 and 2.47 ± 0.17.

Sequence SPADYLRFQDLVLRMLEYEPAARI [DYRK1B] displayed a protein stability index under setting [1] of 2.56 ± 0.35 and a protein stability index under setting [2] of 2.43 ± 0.33. In the case of SPDDPESVKIIFKLPNDSRVERRF [FAF2], the protein stability index reads like this: under setting [1], 3.36 ± 0.23; under setting [2], 3.46 ± 0.24.

In the case of SPELGRPHDRSQGDWAPPPEGGME [ZNF263], the protein stability index is, setting by setting: under setting [1], 5.18 ± 0.21; under setting [2], 5.41 ± 0.25. For SPKRGTAPGDLSATEPATCFPSTQ [FBF1] the same measures were 4.87 ± 0.18 and 4.92 ± 0.24. For SPQIQRSAHRALYRRHVLGIVLQG [TMEM175] the same measures were 2.3 ± 0.19 and 2.42 ± 0.36. For SPRDEYKPLDLSDSTLSYTETEAT [SMAD6] the same measures were 5.45 ± 0.24 and 5.41 ± 0.23.

The sequence SPTSRPPWAVDPAFAERYAPDKTS [PDLIM7] registered a protein stability index under setting [1] of 4.63 ± 0.21 and a protein stability index under setting [2] of 4.7 ± 0.31.

As for SQDEPIALDKQHSRDSAAITHSTY [NOL4L], the protein stability index under setting [1] came to 5.01 ± 0.22 and the protein stability index under setting [2] stood at 5.08 ± 0.16.

SQEETSILRCWKCRKCIASSGCFM [RNF180] yielded a protein stability index under setting [1] of 2.81 ± 0.4 and a protein stability index under setting [2] of 2.89 ± 0.35. For SQPIDLSACTVALHIFQLNEDGPS [TRIP13] the same measures were 2.56 ± 0.2 and 2.51 ± 0.28.

Regarding SQSLALKEQNNLKQLEFGLKEAPV [ZNF8], the protein stability index under setting [1] was 4.7 ± 0.24 and the protein stability index under setting [2] was determined as 4.44 ± 0.16. For SQSSYLSQHRRIHSGEKPFICKEC [ZNF232] the same measures were 3.36 ± 0.33 and 3.67 ± 0.44.

Turning to SQVALKIIRNVGKYREAARLEINV [CLK3], the protein stability index turned out to be 2.67 ± 0.51 under setting [1] and 2.62 ± 0.54 under setting [2].

SRAESAPLPVSADDTPEVLNRALS [CDS2]: the protein stability index reads like this: under setting [1], 5.36 ± 0.19; under setting [2], 5.37 ± 0.21.

Regarding SRLTALTLHQRTHTEERPFKCNYC [ZNF449], the protein stability index under setting [1] was found to be 2.73 ± 0.23 and the protein stability index under setting [2] was 3.03 ± 0.4. For SRSLLTGGYNLASVSVWDLAAPSL [TLE6] the same measures were 2.38 ± 0.27 and 2.29 ± 0.14. For SRVGKQSFIITLGCNSVLIQFATP [CARM1] the same measures were 2.83 ± 0.4 and 2.97 ± 0.56.

Take SSAYVKTSEKLGEWNEKVTQSDLY [TPD52L2]: the protein stability index is 4.02 ± 0.19 under setting [1] and 3.98 ± 0.17 under setting [2]. Turning to SSMFSGSWKESSMNIIELEIPDQN [GMCL1], the protein stability index reads like this: under setting [1], 3.53 ± 0.29; under setting [2], 3.67 ± 0.5.

The record behind these values is the supplement of paper PMC10567573.
